Experimental data as given in the supplement of paper PMC12764529.
± gives the half width of the 95% confidence interval.

Experiments:
[1] = folding stability dG unfold (combined trypsin and chymotrypsin); higher = more stable
Procedure, shortened: (§1)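 Only designs with AlphaFold2 dimer inter-PAE above 15 were retained; each was a mini-protein under 80 residues with no cysteine, in a PA-tagged cDNA display construct. After digestion with trypsin and chymotrypsin and sequencing, K50 was inferred by Bayesian fitting of counts, and unfolding free energy was derived per protease or combined against a sequence-predicted unfolded-state K50 and a shared folded-state K50.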

[2] = folding stability dG unfold from trypsin proteolysis; higher = more stable
Procedure, shortened: as §1

[3] = folding stability dG unfold from chymotrypsin proteolysis; higher = more stable
Procedure, shortened: as §1

Sequence	folding stability dG unfold [1] [kcal/mol]	folding stability dG unfold [2] [kcal/mol]	folding stability dG unfold [3] [kcal/mol]
SAGGSAGGSAGKKKLVVVVDPEEPGRVRIYRDGKVIEMSLEELKKLGIDEVVSVEELLAKSAGGSAGGSAGG [r17_88_TrROS_Hall]	1.96 ± 0.09	1.03 ± 0.04	2.34 ± 0.026
SAGGSAGGSAGKKPEKYILIKVKKEDVEKLLEAIKKLLPPGAEIVKIEKTPEYVYIVVKLSAGGSAGGSAGG [r11_698_TrROS_Hall]	4.21 ± 0.086	3.39 ± 0.13	4.38 ± 0.07
SAGGSAGGSAGKKTLPTYDPKKGKISLIVIEDKEGKEIVFEAFGDGKEFIEAAKEFEKKISAGGSAGGSAGG [r11_119_TrMRF]	-0.0388 ± 0.099	-0.463 ± 0.12	0.182 ± 0.064
SAGGSAGGSAGKKVTLKVLVKNENGKLYMFEAEYEFDENGKLVKVKVKVYEVEVKDLKLPSAGGSAGGSAGG [r11_1019_TrROS_Hall]	2.86 ± 0.16	2.66 ± 0.13	3.02 ± 0.039
SAGGSAGGSAGKKYLIKIEVEKNGKKYTITMSLEELKKLISSPNVKIVKIEIVEVSEEDLSAGGSAGGSAGG [r17_204_TrROS_Hall]	4.98 ± 0.11	4.33 ± 0.15	5 ± 0.07
SAGGSAGGSAGKLEVVELEDGYLVVYDPETGLIVLYTPEEVVAELLDAFDPDKPVVVVEFSAGGSAGGSAGG [r11_374_TrMRF]	1.17 ± 0.11	1.46 ± 0.091	0.689 ± 0.064
SAGGSAGGSAGKLKIKSVITFESEDDLIVKLIEVDDKVFAIVLDPKTGKPVKIIPDNEIFSAGGSAGGSAGG [r11_851_TrMRF]	0.873 ± 0.18	0.0652 ± 0.13	1.2 ± 0.13
SAGGSAGGSAGKLVVVRAIDPENPFVVATTSDNRTYVFDSLEELLEQVPEGVPVLFLPTVSAGGSAGGSAGG [r17_295_TrMRF]	0.933 ± 0.081	0.369 ± 0.028	1.22 ± 0.071
SAGGSAGGSAGKMYKAKVKIGNKEYEAYIEENVPEDGTITVKFDDKTIEIKAENIEVYDESAGGSAGGSAGG [r11_247_TrMRF]	1.15 ± 0.067	0.905 ± 0.031	1.32 ± 0.11
SAGGSAGGSAGKNMVEIEMMFVLPDGWFIKTSLRINPDKPGRIHEVEIEIRKIPPNDEQISAGGSAGGSAGG [r17_299_TrROS]	4.06 ± 0.19	3.51 ± 0.24	4.31 ± 0.17
SAGGSAGGSAGKNPDGQPAPTIEIEPRTRELPDNGYKITIMRIRFPDSGVEFPMIMISPPSAGGSAGGSAGG [r17_31_TrROS]	1.29 ± 0.1	0.833 ± 0.072	1.51 ± 0.091
SAGGSAGGSAGKPEVKVEAEVEPYPETDLVVVNVRVYVDGVPVEIPFVVPPSVAEAFLKASAGGSAGGSAGG [r11_700_TrMRF]	1.16 ± 0.048	1.08 ± 0.03	1.26 ± 0.024
SAGGSAGGSAGKPIKLEEVLEKLNPEKIESVFVFPPIPYVVVLLKDSNGNKKIIVVKEDKSAGGSAGGSAGG [r17_374_TrMRF]	0.837 ± 0.13	0.695 ± 0.019	0.922 ± 0.21
SAGGSAGGSAGKPIPYRITLETETTRAVFTIPADVPLEKVVEIAREIRELYPAPFSIEPSSAGGSAGGSAGG [r11_515_TrMRF]	0.197 ± 0.21	0.14 ± 0.21	-0.00667 ± 0.43
SAGGSAGGSAGKPKEIFVFDKEIDADEAVALLPDEVKEVVVFDIEEAREKGGILIKAVVDSAGGSAGGSAGG [r11_1002_TrMRF]	0.54 ± 0.14	-1.18 ± 0.61	0.898 ± 0.1
SAGGSAGGSAGKPKIKIEEIIEIEVITKKKIPETGKEKETPEKLYIIKVKVENIPPNLKVSAGGSAGGSAGG [r17_530_TrMRF]	1.38 ± 0.25	0.466 ± 0.11	2.11 ± 0.06
SAGGSAGGSAGKPKVRLKLRLTVRVTTLNEDGSLEETEVELELEVELPEVRLPSLEELLKSAGGSAGGSAGG [r11_285_TrROS_Hall]	3.07 ± 0.41	3.22 ± 0.23	2.92 ± 0.24
SAGGSAGGSAGKPKVYVKPIVKKGDYVLYLSYYPEEKKIELWVDKFGDKPKRFVKEYPLESAGGSAGGSAGG [r11_738_TrMRF]	1.13 ± 0.068	0.866 ± 0.043	1.25 ± 0.07
SAGGSAGGSAGKPSVTILVLTDSPEDALALAKPLLEAGYEVKLELFRLPDDRYLALITVPSAGGSAGGSAGG [r11_677_TrMRF]	2.92 ± 0.094	2.13 ± 0.041	3.36 ± 0.039
SAGGSAGGSAGKPVLTLTLRLEDGTLVRIEFDLETEELTVRVLDLETGEEKEFTFKLPAPSAGGSAGGSAGG [r11_931_TrROS_Hall]	3.9 ± 0.14	3.51 ± 0.22	4.07 ± 0.074
SAGGSAGGSAGKRYTFFIPVPPDEMTPEDLVDWIEKIFPDFKGKEIKVEVMPDGYVRIKIEYSAGGSAGGSA [r18_65_TrROS]	3.56 ± 0.097	3.08 ± 0.069	3.89 ± 0.044
SAGGSAGGSAGKTYEIVEYNPETKKFLIRFEDGSTKEVEVKPGDKIEVPPGAKVEIVPLDSAGGSAGGSAGG [r17_295_TrROS_Hall]	1.88 ± 0.14	1.94 ± 0.069	1.76 ± 0.1
SAGGSAGGSAGKVEITVEKNPETGLYTVRIKTEDGKEIEITVPKNMTLEELKKLAEELLKSAGGSAGGSAGG [r17_161_TrROS_Hall]	4.42 ± 0.1	4.43 ± 0.22	4.42 ± 0.11
SAGGSAGGSAGKVKLVEENGKLKLVVVDEKTKKVTVIEVPLENLDEILKLLPPGAKVYLLSAGGSAGGSAGG [r11_1006_TrROS_Hall]	2.12 ± 0.17	1.05 ± 0.053	2.52 ± 0.049
SAGGSAGGSAGKYAIVEVNGKPVLVEFEPLPDDKVKVKIVFPDGSKVEIELKANEPIYVGSAGGSAGGSAGG [r11_525_TrMRF]	1.83 ± 0.13	1.75 ± 0.095	1.72 ± 0.076
SAGGSAGGSAGLDPDDPNYKIIPMTMEIKVEEYRMDPDGKMERQEQEHPIPILIIVPPGDSAGGSAGGSAGG [r17_523_TrROS]	0.365 ± 0.22	0.933 ± 0.074	-0.37 ± 0.28
